Results reported in the supplement of paper PMC12042874.
± gives the uncertainty stated by the source.

Test: amyloid nucleation score (Sup35N fusion, yeast selection) (log enrichment); library NNK3; higher = more nucleation; inactive = no reads after selection
How it was run: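 Peptides of 20 random codons, each fused to Sup35N, were expressed in psi-negative yeast. Cells were induced with 100 μM copper sulfate for 24 hours and grown 7 days at 30°C on medium lacking adenine and uracil, and plasmid inserts before and after selection were Illumina-sequenced. Nucleation scores are DiMSum log enrichments of output over input reads, centred on the mode score of non-aggregating sequences, and sequences under 100 input reads were excluded.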

Row | Substance | amyloid nucleation score
1 | FLPRLSNIWPNFDSSEQLRY | inactive
2 | QPVICNIRSSRCV | inactive
3 | VSRHKFFRHSCAN | inactive
4 | TGVMRYRCLNLFVASICSVP | inactive
5 | MFWCDNSGIMGADKGVALSW | inactive
6 | SVRRHSSGCMNNAL | inactive
7 | WFDWVMVTYEGLSTVF | inactive
8 | LVNDKMLCNYHAMMRLFFFM | inactive
9 | LIRCCFPHMSGVLFMKFTLT | inactive
10 | SVWLASCYHLIWVELGRWDI | inactive
11 | ADIRFKMRENDMFWSNGWGH | inactive
12 | NAFICGSRYQVVKDSDDHCM | inactive
13 | VAAFVNRARNATFVLALYCY | inactive
14 | TFVDPGRV | -0.565 ± 1.1
15 | LYFCKNKYTCWSACVNSGFN | inactive
16 | SLMSGWN | inactive
17 | YFLGECNPRCYLLRGLAAWN | inactive
18 | SVSRRGKDR | -0.237 ± 1.5
19 | IYHYIYSASMKLNTHGELMP | inactive
20 | YSAAEDVKWVLGFCYAGFNS | inactive
21 | PFAST | inactive
22 | VEYNWSLFFNPRDFRGARDL | 0.505 ± 0.27
23 | YIMAFCCLLPNPPVSVLMAH | inactive

Row | Substance | amyloid nucleation score
24 | FWSWNVWLRSGSPAISFHK | inactive
25 | VYSDDVKVVYMYGTNPFDTV | inactive
26 | VLCLLGSSVSS | inactive
27 | MKSQVHNIKWLPTCS | inactive
28 | NSNCYPLVI | inactive
29 | WEGRLDCFSMRWLQMLGSND | inactive
30 | YSDWDIYWIFMFGAGRFFMY | 3.06 ± 0.068
31 | QNCVTDMSKNLGIVREFSCS | inactive
32 | VVMRFCWRKSTIVISFVTVM | inactive
33 | RNHIALSLGWIQEDVIGSWN | 0.991 ± 0.13
34 | CTYLAVVTMMDEELWGIRWN | inactive
35 | RVLDNTSSCRERNVGGDSFA | inactive
36 | DSIRLLLALPH | inactive
37 | VLLCYNIVKPYNVSC | inactive
38 | GSVVTQGCGNLTLEAA | inactive
39 | FNFFTKVASDHRNI | inactive
40 | RTRKQRCHRCVWMLLGDYQR | inactive
41 | YFGVTLLMYERARWASFYRF | inactive
42 | EGSNI | 1.05 ± 0.17
43 | SESCFDMMPCLVGLKSERGQ | inactive
44 | NSVRLCRCEVIGQTIRDHGF | inactive
45 | LSKRRTIILGLVELRYSEVE | inactive
46 | PDDKLM | inactive

Row | Substance | amyloid nucleation score
47 | YSGSCNFVQVSVFKHWSGVY | inactive
48 | FVISYELWAVSERNWSFEMR | inactive
49 | YLWRQYYALFCYCFWNLKGP | inactive
50 | YGCRRDIFKYSMTLLMDAID | inactive
51 | LRYGEFSCSNLYFTWLSFIL | 0.749 ± 0.17
52 | CFVLFLNLLVATGPIWINSP | 0.477 ± 0.2
53 | GITVMSLTG | inactive
54 | TFLLLYGIMDSNVPTVRHAL | 0.846 ± 0.15
55 | GLCRWVTPTAWSAIVVQFCV | inactive
56 | WFFDTDIFHCEFEKMYYPLV | inactive
57 | FKYLRCNNIIVCPVVMVHLT | 0.345 ± 0.22
58 | SRWYFGLLLMNNTHTVNVPL | inactive
59 | SLKARDVRSWSLSLLVQLAF | inactive
60 | IIMRDYTAMCI | inactive
61 | HWACNWI | inactive
62 | MQYDASP | inactive
63 | FPARLYGYMFLKNSTLRFSR | inactive
64 | CDIRFIYESYVSDNDGVLLH | inactive
65 | HHTKILSSYISWVYILITNS | inactive
66 | LTVLDQSCSIYYCTSLHKS | 1.92 ± 0.087
67 | RSTFRRLLRCFGFWRRWSCI | inactive
68 | SMWQQVYSLSTLF | inactive
69 | NGLPVLLEEDLS | inactive

Row | Substance | amyloid nucleation score
70 | FIPGMQA | inactive
71 | CLSYITLPRCLCAHRFKLG | inactive
72 | SVSGKRFDVMVLFLHSSKRL | inactive
73 | NKPGVV | inactive
74 | GQNSRPGLANTLLYPEVLIR | inactive
75 | KNFSFKATDWIVKSSVARCR | inactive
76 | LDAFRRLLEGASRTKCTF | inactive
77 | VDGATFFISWKIMARDSYRY | inactive
78 | GPLSHRN | inactive
79 | SRVLDGVWRAVLSCFQGSSI | 0.867 ± 0.12
80 | LARLYYHFLEVHYVLCIC | inactive
81 | MELYPLLVGNFSIQKKVECN | inactive
82 | TSHNGPYLSMFFRVANT | inactive
83 | SVGVGNIHTR | inactive
84 | SHVLWCNMVNEFVHTLSRCG | 1.34 ± 0.082
85 | VSSSDNSVEIDRVHKMSMVE | inactive
86 | YLSVVRGPMNRCSYYKVMTE | inactive
87 | HSKFWFCLFRIFQVSGLFNR | inactive
88 | YLTSFRFYVFTFR | inactive
89 | CVQRVREYVGT | inactive
90 | APRRHVKGDSHIRWCVRDR | inactive
91 | SVRLSIVAGWFCKIWYSFLL | inactive
92 | FKLVGDIYYQYVYALPRNKL | inactive

Row | Substance | amyloid nucleation score
93 | FRRLHQGLWKMYS | inactive
94 | IVANGCRWQVRVPWGLTSKW | inactive
95 | FGQSLAEIRFLFIPIDKMRR | inactive
96 | PLDSECEKDGHDTPYDYVVL | inactive
97 | QTSSTNPMVASKPQAQRACK | inactive
98 | PKIAGFSGGTCTVA | inactive
99 | KTNRFHIDFAIDTPRLSLFL | inactive
100 | CRIPALTTTMLITNG | inactive
101 | MVKTFVLMTLHLGLMVRFLF | inactive
102 | VVVGIGVAALYEPV | inactive
103 | NKVPVGG | inactive
104 | IRRWPWYIMCYVLLQSFLSL | inactive
105 | FQCFFRVLVV | inactive
106 | WWNLWSPAATATRRCY | -0.462 ± 0.9
107 | RFYSARGGKRARIHVRVKWD | -0.446 ± 0.55
108 | TVLGM | 0.699 ± 0.17
109 | CMLCTQLHNNRRKKSKMCWS | inactive
110 | DYSHLCSNIQGIAFVVVIQN | inactive
111 | FVTIRGVRRTCNPFKGINYG | inactive
112 | TLNSDVSGSNIWASSYG | inactive
113 | DSFVLYALCNYWCSFCIKGA | 1.8 ± 0.09
114 | GMFMCMKMVFFLKWYINLYF | inactive
115 | HLSWNSLTDRNVLC | inactive

Row | Substance | amyloid nucleation score
116 | SFPKYRSNEDFPMDIRCNSS | inactive
117 | DSVRASSLLWMFWCIVEFHG | inactive
118 | WHMWMESKLWQPQRATSVFP | inactive
119 | YIGVYYLN | 0.431 ± 0.28
120 | GGSLGHSRLSKDVSVEESAW | inactive
121 | PHVLVESLW | inactive
122 | NLVSNMVSNAKVDVVVWHVQ | 0.209 ± 0.54
123 | RFMWSLGSTLRWKAWADVTG | inactive
124 | CCGQIADSFLPKSSRGEVRN | inactive
125 | VHFCWNADVSLHITLVGINS | inactive
126 | FVVSKLYMPRWASLLLCWRL | inactive
127 | EKMAADQSS | inactive
128 | ILIGWMILWAICLPKLVDDG | inactive
129 | SVNWMVSKLRSPNSQGLAIE | inactive
130 | DVRFVRDAGAVFLIILSERH | inactive
131 | SYKGLCS | inactive
132 | FGINDCVIRV | inactive
133 | HSRAVLTLLW | inactive
134 | YLFRNLRGRAIFVNKIIGQR | inactive
135 | TWQVFSASVTVSLSYTSK | inactive
136 | LLDSVNGHCYMCLTIMGVRN | inactive
137 | TMVQECHYARSVSLYYNANA | inactive
138 | VEVMSGDEMWCLWLEFPSFE | inactive

Row | Substance | amyloid nucleation score
139 | NELCLVMIKKDVSMRVWLES | inactive
140 | WDIMSRYLCMYIGYTARRCM | inactive
141 | SGMTGCTFRYGSRIQF | inactive
142 | LYSVLGVVSTDSRRDAEWCQ | inactive
143 | SRMTIIWVTVRISRNGTWNF | inactive
144 | CCYATSLYINDDATIIVNLM | 2.74 ± 0.072
145 | IRTNYRRGKEAGVSGADSCS | inactive
146 | YDMTRHLYVSSPEIVKPY | inactive
147 | QALTFIMWETDTSHGTCLNG | 1.46 ± 0.07
148 | SGFHERCFINQPVFST | inactive
149 | GPSSMINNVDLSCFSF | inactive
150 | KYNWLNKVSTIGTSKGSSIG | inactive
151 | KDHLHRRYMGRTAVLREIDI | inactive
152 | WRDFLYLRHGFQYGIRPMSE | inactive
153 | RFLLYPAPWRVFAIPYSEHL | inactive
154 | DQMTHFYYPRNRPRFAISLA | inactive
155 | YRRKVELIRSLRW | inactive
156 | LSLREE | inactive
